Usually IC50 stands for the concentration needed to halve the response being measured. Low values mean greater potency, high ones weaker potency. As a reminder, the EC50 (read off the curve) is the concentration giving half of the maximal effect. What is called Kd is a measure of binding affinity in units of concentration. The low end stands for tighter binding, the high end for weaker binding. By koff is commonly meant the rate constant with which the complex falls apart. A lower koff goes with slow dissociation. The kon is a measure of how fast the partners come together. Higher therefore signals fast association.

Where two headings read alike, the source gives them in different places.

The results in this text go back to US20240043505A1 (UNIVERSITY OF PITTSBURGH OF THE COMMONWEALTH SYSTEM OF …, published 2024).

Assay [1] addresses T1, SARS-CoV-2 spike receptor-binding domain (RBD) (SARS-CoV-2, UniProt P0DTC2 319-541). Kind of assay: indirect ELISA on coated RBD ('ELISA affinity'). On the technique in general: In an ELISA, binding on a coated surface is turned into a signal by an enzyme label.
Assay [2] has as its target SARS-CoV-2 RBD E484K mutant (SARS-CoV-2, UniProt P0DTC2 334-527).
In assay [3] the target is N501Y.
Assay [4] has as its target T1, SARS-CoV-2 spike receptor-binding ….
Assay [5] has the same target. This is another data set of the same source.
Assay [6] shares this target. Kind of assay: SPR (Biacore 3000), RBD immobilised. For orientation: Surface plasmon resonance follows binding to a sensor surface in real time, without labels.
Assay [7] shares this target. This is another data set of the same source.
Assay [8] shares this target. The source holds these as a separate data set.
Assay [9] deals with N501Y. The source holds these as a separate data set.

B1: Nb107 (VHH)
VHH: HVQLVESGGGLVQAGGSLRLSCAASGRAIGIHRMAWFRQAPGKERAFVAAIQWTGDMPTYADSLKGRFTISADNAKNTVSLQMTSLKPDDTAVYYCAARSATTALYDYWGQGTQVTVSS
In the case of B1, the half-inhibitory concentration (IC50) in assay [1] was determined as 0.76 nM.

B2: Nb95 (VHH)
VHH: QVQLVESGGGLVQAGGSLRLSCAASGRTFSSYSMGWFRQAQGKEREFVATINGNGRDTYYTNSVKGRFTISRDDATNTVYLQMNSLKPEDTAIYYCAADKDVYYGYTSFPNEYEYWGQGTQVTVSS
Take B2: the “binding affinity fold change relative to RBD WT” value in assay [2] was 1.15 fold; with K417N, 1.11 fold; with N439K, -2.19 fold; with Y453F, -1.31 fold; in the assay with A475V, 1.21 fold; with N501Y [3], 1.37 fold. The “EC50 (read off the curve)” value in assay [4] is about 6 nM. The IC50 in assay [5] stood at 6.05 nM; in assay [1], 2.28 nM.

B3: Nb102 (VHH)
VHH: QVQLVESGGGLVQAGGSLRLSCAASGRTFSNSHMGWFRQAPGKEREFVAVISRSGGSTLYADSVKGRFTISRDNAKNTVYLQMNSLKPEDTAVYYCAASRTAGLTSNRSLYDYWGRGTQVTVSS
As to B3, the IC50 in assay [1] came out at 28.4 nM.

B4: Nb97 (VHH)
VHH: HVQLVESGGGLVQAGGSLRLSCAAPGRTFSTSAMGWFRQAPGKEREFVAAIDWSNTNIHYADTVKGRFTISTDTAKNTVYLQMNNLKPEDTAVYYCAQGGWGLTQPISVDYWGKGTQVTVSS
With B4, in assay [1], the IC50 was 0.32 nM.

B5: Nb90 (VHH)
VHH: HVQLVESGGGLVQAGGSLRLSCAVSGRTVSSYVMGWFRQAPGKEREFVAGIGRTGMTITADSVKGRFTISRDNAKNLVYLQMNSLKSEDTAVYWCAAGVRDFAPRIDSYDYWGQGTQVTVSS
Take B5: the IC50 in [1] came out at 4.03 nM.

B6: Nb92 (VHH)
VHH: HVQLVESGGGLVQAGGSLRLSCAASGRTFSAYGMGWFRQAPGKEREFVAGIARSGSEYYGDSVKGRFTISRDNAKNTVYLQMASLKAEDTGVYYCAADPTILYHALSQRTQNYRYWGPGTQVTVSS
In assay [1], B6 had an IC50 of 4.92 nM.

B7: Nb96 (VHH)
VHH: HVQLVESGGGLVQAGDSLRLSCAASGRDFSSYAMGWFRQAPGKEREFVGVISSGDVGTFYEDSVKGRFTISRDDAKNTVDLQMNSLKPEDTAVYYCAAALYVTSTRGSYAYWGQGTQVTVSS
B7 gave an IC50 in assay [1] of 0.04 nM.

B8: Nb99 (VHH)
VHH: QVQLVESGGGLVQTGGSLRLSCAASGSTRSIWYSGWYRQAPGKQRELVASLTSGGTTYYPDSMKGRFTISGSSGLNMVYLQMNSLRPEDTAVYSCNVRTGSGVYWGQGTQVTVSS
In assay [1], B8 had an IC50 of 0.35 nM.

B9: Nb10 (VHH)
VHH: DVQLVESGGGLVQAGGSLKLSCTASESTFNFNHIDWYRQAPGKQRESVAVITNTDVTNYADSVKGRFTISRDNAKNTVYLQMNSLKPEDTAVYLCNAWRFGPTGVKVDYWGQGTQVTVSS
Turning to B9, the IC50 in assay [1] came out at 0.24 nM.

B10: Nb91 (VHH)
VHH: HVQLVESGGGLVQPGGSLRLSCAASGLTLNDYAIGWFRQAPGKEREGVSCISSSDGTTYYADSVKGRFTISRDNAKNTVYLQMNSLKPEDTAVYYCATDIAPFYCSWPLRTRLVEYWGQGTQVTVSS
Turning to B10, the 50% inhibitory concentration (IC50) in [1] turned out to be 1.28 nM.

B11: Nb89 (VHH)
VHH: HVQLVESGGGLVQAGGSLRLSCAASGGTFTTFRMAWFRQTPGKEREFVAASSWGFVNYADPVKGRFTISRDNAKNTVYLEMSSLKTEDTAVYYCAARNPGTGQYDYWGQGTQVTVSS
Take B11: in assay [6], the Kd worked out at 0.108 nM, the koff is 0.000624 s⁻¹ and the kon was 5.78e+06 M⁻¹ s⁻¹. Besides, in assay [1], the IC50 came out at 1.09 nM.

B12: Nb93 (VHH)
VHH: EVQLVESGGGLVQPGGSLRLSCAASGFTFSSYAMSWVRQAPGKGREWVAGITPGSGTFYADSVKGRFTISRDNAKNTLSLEINSLKPEDTALYYCAKCRQEFSWDFSSRDPDDFDYWGQGTQVTVSS
In assay [1], B12 came in with an IC50 of 1.15 nM.

B13: Nb105 (VHH)
VHH: HVQLVESGGGLVQAGGSLRLSCAVSGRTFSTYGMAWFRQAPGKERDFVATITRSGETTLYADSVKGRFTISRDNAKNTVYLQMNSLKIEDTAVYYCAVRRDSSWGYSRDLFEYDYWGQGTQVTVSS
As to B13, the “binding affinity fold change relative to RBD WT” value in assay [2] was 1.02 fold; with K417N, -1.45 fold; with N439K it was 1.06 fold; with Y453F, 1.31 fold; in the assay with A475V it was -1.1 fold; with N501Y [3], -2.69 fold. The “EC50 (read off the curve)” value in assay [7] is about 2 nM. The results for the half-inhibitory concentration (IC50) in assay [5] and in assay [1] were 0.97 nM and 0.26 nM, respectively.

B14: Nb12 (VHH)
VHH: HVQLVESGGGLVQAGGSLRLTCAASGGTFSTSTMDMGWFRQAPGKEREFVAVDSWNDGRAYYADSVKGRFTISRDSAKTTLYLQMNSLKPEDTAVYYCAARTERGVYDYWGRGTQVTVSS
Take B14: the IC50 in [1] was found to be 539 nM.

B15: Nb9 (VHH)
VHH: HVQLVESGGGLVQTGGSLRLSCAFSGYTFSTFPTAWFRQAPGKEREFVAGIRWNGGSRDYTEYADFVKGRFTISRDNAKNMIYLQMISLKPEDTALYYCAASHGVVDGTSVNGYRYWGQGTQVTVSS
As to B15, the IC50 in assay [1] was found to be 0.89 nM.

B16: Nb34 (VHH)
VHH: DVQLVESGGGLVQAGGSLRLSCAASGFTFSNYVMYWGRQAPGKGREWVSGIDSDGSDTAYASSVKGRFTISRDNAKNTLYLQMNNLKPEDTALYYCVKSKDPYGSPWTRSEFDDYWGQGTQVTVSS
Consider B16, for which the “binding affinity fold change relative to RBD WT” value in assay [2] was 1.07 fold; with K417N it was -1.96 fold; in the assay with N439K, 1.18 fold; in the assay with Y453F, 1.2 fold; with A475V, -1 fold; with N501Y [3] it was -5.79 fold. The “EC50 (read off the curve)” value in assay [8] is about 1 nM; with N501Y [9], about 7 nM. Further, the IC50 was determined as 0.63 nM in assay [5] and 0.47 nM in assay [1].

B17: Nb94 (VHH)
VHH: QVQLVESGGGLVQAGGSLRLSCTASGGTFRSFTMAWFRQAPGKEREFVATLSWTGVGTYYADSVKGRFTISRDIAKNTVYLEMNSLIPEDTAVYYCAASPYTYSLLSRTGDYGYWGQGTQVTVSS
For B17, in assay [1], the half-maximal inhibitory concentration (IC50) was determined as 0.5 nM.
